Measurements: patent US20150125470A1
Residue numbers refer to the chain shown, from its start.

B1: human chimeric antibody of the rat anti-human Siglec-15 monoclonal antibody #24A3 (antibody, human IgG2, V domains shown)
VH: QVQLQQSGAELTKPGSSVKISCKTSGYTFPRYDVSWIKQRPGQALEWIGVIHPGSGGTGYNEKFKAKATLAVDTSSSTAFMQLSSLTPEDTAVYYCARRGLNSGYWFFDFWGPGTLVTVSS
VL: DIVMTQSPTSMSISVGDRVTMNCKASQNVGSNVDWYQQKTGQSPKLLIYESTNRYTGVPDRFTGSGSGTDFTFTISNVQAEDLAVYYCMQSNFFPFTFGSGIKLEIKR
B2: h#24A3-H2/L3 (antibody, human IgG2, kappa, V domains shown)
VH: QVQLVQSGAEVKKPGASVKVSCKASGYTFPRYDVSWVRQAPGQGLEWMGVIHPGSGGTGYNEKFKARVTITADTSTSTAYMELSSLRSEDTAVYYCARRGLNSGYWFFDFWGQGTLVTVSS
VL: DIVMTQSPDSLAVSLGERATINCKASQNVGSNVDWYQQKPGQSPKLLIYESTNRYTGVPDRFTGSGSGTDFTFTISSLQAEDVAVYYCMQSNFFPFTFGQGTKVEIKR
B3: h#24A3-H2c/L3b (antibody, human IgG2, kappa, V domains shown)
VH: B2 VH with M48I, S103K
VL: B2 VL with F73L
B4: h#24A3-H2d/L1 (antibody, human IgG2, kappa, V domains shown)
VH: B2 VH with V68A, S103K
VL: B2 VL with S43P, T63S, F73L
B5: h#24A3-H2d/L2b (antibody, human IgG2, kappa, V domains shown)
VH: B2 VH with V68A, S103K
VL: B2 VL with T63S, F73L
B6: h#24A3-H2b/L3b (antibody, human IgG2, kappa, V domains shown)
VH: B2 VH with S103K
VL: B2 VL with F73L
B7: h#24A3-H2d/L3b (antibody, human IgG2, kappa, V domains shown)
VH: B2 VH with V68A, S103K
VL: B2 VL with F73L
B8: h#24A3-H2e/L1 (antibody, human IgG2, kappa, V domains shown)
VH: B2 VH with A72V, S103K
VL: B2 VL with S43P, T63S, F73L
B9: h#24A3-H2e/L3b (antibody, human IgG2, kappa, V domains shown)
VH: B2 VH with A72V, S103K
VL: B2 VL with F73L
B10: h#24A3-H2b/L2b (antibody, human IgG2, kappa, V domains shown)
VH: B2 VH with S103K
VL: B2 VL with T63S, F73L
B11: h#24A3-H2b/L1 (antibody, human IgG2, kappa, V domains shown)
VH: B2 VH with S103K
VL: B2 VL with S43P, T63S, F73L
B12: h#24A3-H2/L1 (antibody, human IgG2, kappa, V domains shown)
VH: B2 VH
VL: B2 VL with S43P, T63S, F73L
B13: h#24A3-H2e/L2b (antibody, human IgG2, kappa, V domains shown)
VH: B2 VH with A72V, S103K
VL: B2 VL with T63S, F73L
B14: h#24A3-H2c/L1 (antibody, human IgG2, kappa, V domains shown)
VH: B2 VH with M48I, S103K
VL: B2 VL with S43P, T63S, F73L
B15: h#24A3-H2/L2 (antibody, human IgG2, kappa, V domains shown)
VH: B2 VH
VL: B2 VL with T63S
B16: h#24A3-H2c/L2b (antibody, human IgG2, kappa, V domains shown)
VH: B2 VH with M48I, S103K
VL: B2 VL with T63S, F73L
B17: rat anti-human Siglec-15 monoclonal antibody #24A3 (antibody, rat IgG2a, V domains shown)
VH: B1 VH
VL: B1 VL

What follows are binders tested against human Siglec-15 V-set domain (human) (UniProt Q6ZMC9) (assay: SPR (Biacore T200), antibody captured via immobilized anti-human IgG antibody, antigen as analyte, 1:1 model).
Chain of UniProt Q6ZMC9 (Q6ZMC9 39-165 limits assumed, form in doubt): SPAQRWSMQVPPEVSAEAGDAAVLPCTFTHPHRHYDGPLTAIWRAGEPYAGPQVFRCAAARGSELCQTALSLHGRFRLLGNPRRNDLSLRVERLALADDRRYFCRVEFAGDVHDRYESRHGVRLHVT

| Kd | Binder |
| --- | --- |
| 0.017 nM | B1 |

These binders were tested against human Siglec-15 V-set domain (human) (UniProt Q6ZMC9) (assay: SPR (Biacore T200), antibody captured via anti-human IgG, antigen as analyte, same manner as 10-1).

| Kd | Binder |
| --- | --- |
| 0.027 nM | B2 |
| 0.015 nM | B3 |
| 0.0045 nM | B4 |
| 0.01 nM | B5 |
| 0.0077 nM | B6 |
| 0.0075 nM | B7 |
| 0.0069 nM | B8 |
| 0.016 nM | B9 |
| 0.0085 nM | B10 |
| 0.0098 nM | B11 |
| 0.031 nM | B12 |
| 0.018 nM | B13 |
| 0.01 nM | B14 |
| 0.028 nM | B15 |
| 0.013 nM | B16 |

What follows are binders tested against human Siglec-15 V-set domain (human) (UniProt Q6ZMC9) (assay: SPR (Biacore T200), antibody captured via immobilized anti-mouse IgG antibody, antigen as analyte, 1:1 model).

| Kd | Binder |
| --- | --- |
| 0.07 nM | B17 |

The binders below were run against human Siglec-15 V-set domain (human) (UniProt Q6ZMC9) (assay: SPR (Biacore T200), ratio of KD values, reference rat #32A1).

| fold affinity against #32A1 | Binder |
| --- | --- |
| 2 fold | B17 |
